Laboratory results from publication PMC7275706.
pKd, pKi: −log10 of the molar value.

Key:
[1] = target: Toxoplasma gondii ERK7 kinase domain, ERK7_(2–358); test: fluorescence polarisation competition; details: competition with fluorescein-labeled wild-type AC9
[2] = target: Toxoplasma gondii ERK7 kinase domain, ERK7_(2–358) (Toxoplasma gondii); test: fluorescence polarisation; competition: unlabeled AC9 constructs titrated against 10 nM fluorescein-AC9 and 100 nM ERK7; single-site inhibition, global fit
[3] = target: APS 609-621 (Rattus norvegicus) (UniProt Q9Z200); details: cited from earlier work
[4] = target: Shc 423-435 (Homo sapiens) (UniProt P29353); details: cited from earlier work
[5] = target: fluorescein-labeled AC9_(419–452) with an additional N-terminal Cys (Toxoplasma gondii); test: fluorescence polarisation; ERK7 2–358 serially diluted against 10 nM fluorescein-AC9 419–452, 20 μL in 384-well plate; single-site binding, global fit of three replicate experiments
[6] = target: fluorescein-labeled synthetic MEK2_(4–16) peptide (rat) (rat) (UniProt P36506); test: fluorescence polarisation; ERK7 titrated against 100 nM fluorescein-labeled synthetic MEK2 4–16 peptide; single-site binding, global fit

Grb2 SH2, sequence (P62993 57-155): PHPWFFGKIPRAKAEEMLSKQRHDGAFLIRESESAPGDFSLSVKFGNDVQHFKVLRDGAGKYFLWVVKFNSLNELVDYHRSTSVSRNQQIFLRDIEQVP

Substance: AC9 wild type R421A; K423A
- pKi [1]: 7.20

Substance: AC9_(R421A/K423A) (domain or fragment)
- fold reduction of affinity against wild-type AC9 [2]: 4 fold

Substance: AC9_(W438A) (domain or fragment)
- pKi [2]: 5.80

Substance: Cbl TKB (from UniProt P22681)
- pKd [3]: 7.37

Substance: Grb2 SH2 (from UniProt P62993)
- pKd [4]: 7.74

Substance: Toxoplasma gondii ERK7 kinase domain, ERK7_(2–358) (domain or fragment)
- pKd [5]: 7.47
- pKd [6]: 4.92

Substance: WT AC9_(401–452) (domain or fragment)
- pKi [2]: 7.82
